# B1: CPEB3 Ribozyme (parent)
# chain: GGGGGCCACAGCAGAAGCGUUCACGUCGCGGCCCCUGUCAGAUUCUGGUGAAUCUGCGAAUUCUGCUGU
# Variants of: B1
# Test: self-cleavage, relative activity (ratio to wild type); higher = more cleavage; co-transcriptional
row,Variant,self-cleavage
1,G11A G41A,0.276
2,G11A G65A,0.759
3,G11A G65U,0.781
4,A10U G58C,1.02
5,A10U G58U,0.984
6,G11C G28C,0.137
7,G11C G28A,0.0877
8,G11C G28U,0.137
9,G11U A51U,0.785
10,G11U A51G,0.921
11,G11A U46A,0.932
12,G11A U46G,0.93
13,G11A U46C,0.91
14,A10U G50A,0.978
15,A10U G50C,1
16,A10U G19A,0.15
17,A10U G19U,0.589
18,A10U G19C,0.119
19,G11A C57A,0.287
20,G11A C57U,0.332
21,A10U U53G,0.902
22,A10U U53A,0.981
23,A10U G17C,0.168
24,A10U G17U,0.512

row,Variant,self-cleavage
1,G11C A23U,0.798
2,G11A G19U,0.088
3,G11A G19C,0.133
4,G11A U44C,0.528
5,G11A U44G,0.76
6,G11U A13U,0.184
7,G11U A13G,0.527
8,G11U A13C,0.146
9,A10U G48U,1
10,G11C U53A,0.381
11,G11C U53C,0.28
12,A10U G65C,0.627
13,G11C G47A,0.907
14,G11C G47C,0.896
15,G11C G47U,0.916
16,A10U U67C,1
17,G11C G14U,0.172
18,G11C G14A,0.0859
19,G11C G14C,0.0758
20,G11C C32G,0.17
21,G11C C32U,0.82
22,G11C C32A,0.601
23,G11A A60G,0.434
24,G11A A60U,0.323

row,Variant,self-cleavage
1,G11A A59U,0.41
2,G11A U20G,0.154
3,G11A U20C,0.213
4,G11A G56A,0.708
5,G11A G56U,0.475
6,A10U U38A,0.959
7,A10U U38G,0.154
8,A10U U38C,0.99
9,G11A C39U,0.609
10,G11A C39G,0.646
11,G11A C39A,0.405
12,G11A A51G,0.865
13,G11A A51U,0.847
14,G11C U43C,0.571
15,G11C U43A,0.357
16,G11C C39A,0.257
17,G11C C39G,0.408
18,A10U G47A,1.03
19,A10U G47C,0.991
20,A10U G47U,0.962
21,G11A A13U,0.186
22,G11U C22G,0.112
23,G11U C22U,0.179
24,G11U C22A,0.129

row,Variant,self-cleavage
1,G11A C54A,0.368
2,G11A C54G,0.426
3,G11A C54U,0.886
4,A10U U20G,0.19
5,A10U U20A,0.122
6,A10U U20C,0.232
7,G11C G68A,0.907
8,G11C G68C,0.823
9,G11C A59U,0.36
10,G11C A59C,0.324
11,A10U U46G,1.01
12,A10U G37A,0.322
13,A10U G37U,0.203
14,G11A C12A,0.74
15,G11A C12G,0.788
16,A10U G68C,1.05
17,G11U C24G,0.177
18,G11U C24U,0.422
19,G11C A16G,0.471
20,G11A G31U,0.599
21,G11A G31C,0.155
22,G11U A59G,0.901
23,G11C G25C,0.177
24,G11C G25A,0.149

row,Variant,self-cleavage
1,G11C G41A,0.209
2,A10U C54U,1.01
3,G11A C32G,0.293
4,G11A C32A,0.816
5,G11C U67G,0.93
6,G11C U67C,0.92
7,G11C U67A,0.897
8,G11A U21C,0.633
9,G11A U21A,0.875
10,G11C A40U,0.26
11,G11C A40C,0.179
12,G11C A40G,0.643
13,A10U U21G,0.581
14,A10U U21A,1
15,A10U U21C,0.912
16,G11C G48C,0.963
17,G11C G48A,0.921
18,G11C U44A,0.636
19,A10U U44C,0.949
20,A10U U44G,0.928
21,G11U C27A,0.16
22,G11U C27G,0.134
23,G11U C27U,0.148
24,G11C G17U,0.144

row,Variant,self-cleavage
1,G11C G17C,0.143
2,G11A U36A,0.211
3,G11A U36C,0.727
4,G11A U36G,0.131
5,G11U A42G,0.476
6,G11U A42C,0.342
7,G11U,0.905
8,G11C,0.872
9,G11A,0.932
10,G11A C22A,0.127
11,G11A C22U,0.191
12,G11A G30A,0.663
13,G11A G30U,0.32
14,G11A G30C,0.672
15,G11C C22A,0.177
16,G11C C22U,0.143
17,G11A G50C,0.715
18,G11A G50U,0.927
19,G11C U38A,0.729
20,G11C U38G,0.113
21,G11C C18A,0.0969
22,G11C C18U,0.246
23,G11C C63G,0.299
24,G11C C63A,0.275

row,Variant,self-cleavage
1,A10U C63A,0.825
2,A10U C63G,0.591
3,G11A C33G,0.733
4,G11A C33U,0.908
5,A10U C66U,1.01
6,G11A U38C,0.733
7,G11A U38A,0.684
8,G11A U38G,0.142
9,A10U G41U,0.86
10,A10U G41A,0.844
11,A10U U61C,0.781
12,G11A G17C,0.122
13,G11A G17A,0.119
14,G11A G17U,0.142
15,G11A C18G,0.106
16,G11A C18U,0.278
17,G11A C18A,0.107
18,G11A U55G,0.317
19,G11A U55A,0.348
20,A10U U69A,1.02
21,A10U U62G,0.896
22,G11C C57U,0.238
23,G11C C57G,0.284
